Measured values reported in PMC11314397, “Purification and Characterization of Proteinaceous Thermostable α-Amylase Inhibitor from Sardinian Common Bean Nieddone Cultivar (Phaseolus vulgaris L.)” (Plants, 2024).

What was measured:
[1] = molecular target: α-amylase from Tenebrio molitor (Tenebrio molitor (endogenous in larvae)) (UniProt P56634)
[2] = molecular target: T1, α-amylase from porcine pancreas (porcine, UniProt P00690 16-511); experiment: enzyme inhibition kinetics (Lineweaver-Burk); porcine α-amylase with 0, 0.25 and 0.50 µM α-AI, CNP-G3 0.1 to 5 mM as substrate, 250 mM sodium phosphate pH 6.5, 60 mM NaCl, 5 mM CaCl2, 500 mM KSCN, 37 °C, 10 min preincubation; mixed-type inhibition; conditions: both partners purified
T1 construct: pancreatic α-amylase, pig, from porcine pancreas; also called porcine pancreatic α-amylase; pig α-amylase; source: bought: Sigma-Aldrich (Type VI-B A3176-2.5MU)
T1 sequence (looked up): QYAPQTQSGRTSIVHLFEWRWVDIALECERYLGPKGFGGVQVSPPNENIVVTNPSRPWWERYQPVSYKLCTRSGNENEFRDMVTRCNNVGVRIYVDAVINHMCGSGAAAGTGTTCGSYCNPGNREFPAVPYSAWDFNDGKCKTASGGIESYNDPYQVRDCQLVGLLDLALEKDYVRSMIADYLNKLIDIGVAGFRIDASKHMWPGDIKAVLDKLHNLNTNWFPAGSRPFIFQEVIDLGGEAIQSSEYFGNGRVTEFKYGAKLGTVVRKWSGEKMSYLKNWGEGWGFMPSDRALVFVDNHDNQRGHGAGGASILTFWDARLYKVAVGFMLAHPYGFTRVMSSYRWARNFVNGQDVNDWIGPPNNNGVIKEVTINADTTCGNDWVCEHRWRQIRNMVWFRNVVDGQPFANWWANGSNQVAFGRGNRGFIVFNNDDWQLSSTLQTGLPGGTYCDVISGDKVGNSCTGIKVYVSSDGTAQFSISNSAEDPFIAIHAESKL

Chain of α-amylase from Tenebrio molitor (Tenebrio molitor (endogenous in larvae)) (P56634 whole entry): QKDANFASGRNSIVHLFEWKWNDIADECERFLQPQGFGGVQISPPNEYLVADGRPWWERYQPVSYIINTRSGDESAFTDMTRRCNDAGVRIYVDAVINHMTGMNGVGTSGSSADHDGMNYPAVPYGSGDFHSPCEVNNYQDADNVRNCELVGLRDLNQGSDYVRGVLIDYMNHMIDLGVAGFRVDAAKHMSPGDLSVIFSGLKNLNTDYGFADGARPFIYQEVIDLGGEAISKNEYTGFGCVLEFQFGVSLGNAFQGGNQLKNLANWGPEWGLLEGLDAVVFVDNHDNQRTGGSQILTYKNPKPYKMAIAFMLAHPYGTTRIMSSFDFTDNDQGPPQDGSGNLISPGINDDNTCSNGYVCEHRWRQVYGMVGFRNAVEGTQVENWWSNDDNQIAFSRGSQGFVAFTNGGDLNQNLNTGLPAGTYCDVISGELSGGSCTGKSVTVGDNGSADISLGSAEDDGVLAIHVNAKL

- inhibitory power against α-amylase, CNP-G3 assay; susceptibility against that of human salivary and porcine pancreatic α-amylase [1]: 3 fold
- Ki [2]: 170 nM
B1: α-amylase inhibitor (α-AI) purified from Phaseolus vulgaris Nieddone cultivar (complex)
chain 1: ATETSFIIDAFNKTNLILQGDATVSSNGNLQLSYNSYDSMSRAFYSAPIQIRDSTTGNVASFDTNFTMNIRTHRQAN
chain 2: SAVGLDFVLVPVQPESKGDTVTVEFDTFLSRISIDVNNNDIKSVPWDVHDYDGQNAEVRITYNSSTKVFSVSLSNPSTGKSNNVSTTVELEKEVYDWVSVGFSATSGAYQWSYETHDVLSWSFSSKFINLKDQKSERSN
modifications: native seed glycoprotein (N-glycosylated; sites not given); alpha2beta2 tetramer cleaved after Asn77 (mature numbering, = Asn100 of precursor). Reference sequence P02873 used: Nieddone cultivar …
